According to patent US20180127487A1 (Sanofi, published 2018):

What was measured:
[1] = biological target: T1, His-tagged CHIKV E2 LR2006 (Chikungunya virus strain LR2006, UniProt Q8JUX5 326-1220)
T1 construct: also called CHIKV pE2-E1 antigen derived from CHIKV strain LR2006; pE2-E1 target

Antigen (E2) = Antigen (E2) (Chikungunya virus); experiment: SPR (Biacore T200), His-tagged antigen captured by anti-His antibody, 1:1 model
recombinant human FcRn [2] = biological target: T2, recombinant human FcRn (human, UniProt P55899 24-297; P61769 21-119); experiment: SPR (Biacore T200), human FcRn immobilised on CM5 chip
T2 construct: also called human FcRn receptor

[3] = biological target: T3, Recombinant human HPC4-tagged FcγRIIIa-V158 (human, UniProt P08637 17-208); experiment: SPR (Biacore 3000), HPC4-tagged FcγRIIIa-V158 captured on anti-HPC4 CM5 chip, antibody injected 2 min, in duplicate; concentration (900, 300 or 100 nM in the methods) not printed on the sheet
T3 construct: Valine at 158 is a polymorphism, named without an old residue; also called Val158; not shown: HPC4 tag

[4] = biological target: T4, Recombinant human HPC4-tagged FcγRIII-F158 (human, UniProt P08637 17-208); experiment: SPR (Biacore 3000), HPC4-tagged FcγRIII-F158 captured on anti-HPC4 CM5 chip, antibody injected 2 min, in duplicate; concentration (900, 300 or 100 nM in the methods) not printed on the sheet
T4 construct: also called FcγRIIIaF158; not shown: HPC4 tag

recombinant mouse FcRn [5] = biological target: T5, recombinant mouse FcRn (mouse, UniProt Q61559 22-297; P01887 21-119); experiment: SPR (Biacore T200), mouse FcRn immobilised on CM5 chip
T5 sequence 1: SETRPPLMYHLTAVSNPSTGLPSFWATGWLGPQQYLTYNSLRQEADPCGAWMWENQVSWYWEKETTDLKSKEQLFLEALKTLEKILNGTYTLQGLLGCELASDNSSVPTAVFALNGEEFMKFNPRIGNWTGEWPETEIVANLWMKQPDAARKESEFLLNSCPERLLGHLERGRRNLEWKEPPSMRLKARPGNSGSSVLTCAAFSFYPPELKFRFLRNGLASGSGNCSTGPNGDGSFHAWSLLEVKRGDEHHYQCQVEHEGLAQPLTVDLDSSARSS
T5 sequence 2: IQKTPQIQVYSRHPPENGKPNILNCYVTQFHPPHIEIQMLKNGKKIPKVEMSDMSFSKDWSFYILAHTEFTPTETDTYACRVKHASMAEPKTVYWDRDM

recombinant human FcRn [6] = biological target: T2, recombinant human FcRn; experiment: SPR, human FcRn immobilised; relative to mAb1
recombinant mouse FcRn [7] = biological target: T5, recombinant mouse FcRn; experiment: SPR, mouse FcRn immobilised; relative to mAb1

T4 sequence (P08637 17-208): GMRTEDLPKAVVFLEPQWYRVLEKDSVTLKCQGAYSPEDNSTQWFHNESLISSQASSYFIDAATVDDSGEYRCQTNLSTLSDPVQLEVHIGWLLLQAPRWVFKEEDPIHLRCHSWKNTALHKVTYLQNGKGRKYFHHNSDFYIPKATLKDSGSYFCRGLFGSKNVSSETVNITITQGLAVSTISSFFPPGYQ
T3 sequence (P08637 17-208 F176V): as the sequence (P08637 17-208) above, with F160V counted along it
T2 sequence (P55899 24-297 limits assumed, chain 1 of 2): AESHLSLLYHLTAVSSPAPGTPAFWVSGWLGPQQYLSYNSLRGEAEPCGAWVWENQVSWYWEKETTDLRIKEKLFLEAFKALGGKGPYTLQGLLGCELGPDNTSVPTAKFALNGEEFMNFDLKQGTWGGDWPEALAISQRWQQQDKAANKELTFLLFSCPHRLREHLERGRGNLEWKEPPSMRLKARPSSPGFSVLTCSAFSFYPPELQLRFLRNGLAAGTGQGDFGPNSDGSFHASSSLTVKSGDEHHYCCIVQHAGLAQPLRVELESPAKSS
T2 sequence (P61769 21-119 limits assumed, chain 2 of 2): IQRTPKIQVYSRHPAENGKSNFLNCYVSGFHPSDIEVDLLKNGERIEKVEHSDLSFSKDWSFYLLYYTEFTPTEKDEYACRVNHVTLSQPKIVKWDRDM

B1: M104A/G109A (antibody, V domains shown)
VH: QVQLVQSGAEVKKPGASVKVSCKVSGYILSKLSVHWVRQAPGKGLEWMGGSEREDGETVYAQKFQGRISLTEDTSIETAYMELSSLSSEDTAVYYCATGGFWSAIGGNAVDYWGQGTLVTVSS
VL: QAVVTQSPSSLPASVGDRVTITCRASQDIRNNLGWYQQKPGKAPERLIYGTSNLQSGVPSRFSGSGSGTEFTLTISSLQPEDFATYYCLQHNSYPPTFGRGTKVEIKR
notes: also called mAb2 M104A/G109A; double mutant of mAb2 in CDRH3
Does B1 bind [1]?
Result: no binding

B2: mAb10 (antibody, V domains shown)
VH: QVQLVQSGAEVKKPGASVKVSCKVSGYILSKLSVHWVRQAPGKGLEWMGGSEREDGETVYAQKFQGRISLTEDTSIETAYMELSSLSSEDTAVYYCATGGFWSIIGGNGVDYWGQGTLVTVSS
VL: QAVVTQSPSSLPASVGDRVTITCRASQDIRNNLGWYQQKPGKAPERLIYGTSNLQSGVPSRFSGSGSGTEFTLTISSLQPEDFATYYCLQHNSYPPTFGRGTKVEIKR
notes: also called mAb2M104I
What does the source list for B2?
Kd (Antigen (E2)): 0.94 nM; binding result [1]: binds

B3: M104A/N108Q (antibody, V domains shown)
VH: QVQLVQSGAEVKKPGASVKVSCKVSGYILSKLSVHWVRQAPGKGLEWMGGSEREDGETVYAQKFQGRISLTEDTSIETAYMELSSLSSEDTAVYYCATGGFWSAIGGQGVDYWGQGTLVTVSS
VL: QAVVTQSPSSLPASVGDRVTITCRASQDIRNNLGWYQQKPGKAPERLIYGTSNLQSGVPSRFSGSGSGTEFTLTISSLQPEDFATYYCLQHNSYPPTFGRGTKVEIKR
notes: also called mAb2 M104A/N108Q; double mutant of mAb2 in CDRH3
Does B3 bind [1]?
Result: no binding

B4: mAb2 M104A (antibody, V domains shown)
VH: QVQLVQSGAEVKKPGASVKVSCKVSGYILSKLSVHWVRQAPGKGLEWMGGSEREDGETVYAQKFQGRISLTEDTSIETAYMELSSLSSEDTAVYYCATGGFWSAIGGNGVDYWGQGTLVTVSS
VL: QAVVTQSPSSLPASVGDRVTITCRASQDIRNNLGWYQQKPGKAPERLIYGTSNLQSGVPSRFSGSGSGTEFTLTISSLQPEDFATYYCLQHNSYPPTFGRGTKVEIKR
notes: also called variant comprising an alanine at position 8 of its CDRH3
Does B4 bind [1]?
Result: no binding

B5: mAb12 (antibody, V domains shown)
VH: QVQLVQSGAEVKKPGASVKVSCKVSGYILSKLSVHWVRQAPGKGLEWMGGSEREDGETVYAQKFQGRISLTEDTSIETAYMELSSLSSEDTAVYYCATGGFWSMIGGNAVDYWGQGTLVTVSS
VL: QAVVTQSPSSLPASVGDRVTITCRASQDIRNNLGWYQQKPGKAPERLIYGTSNLQSGVPSRFSGSGSGTEFTLTISSLQPEDFATYYCLQHNSYPPTFGRGTKVEIKR
notes: also called mAb2G109A; mAb2 G109A
Which Kd (Antigen (E2)) does the source give for B5 here?
The Kd was 0.5 nM.

Does B5 bind [1]?
Result: binds

B6: mAb3 (antibody)
heavy: not shown
light: QAVVTQPPSVSGAPGQRVTISCTGSSSNIGADYNVHWYQLLPGTAPKLLIYGNTNRPSGVPDRFSGSKSGTSASLAITGLQAEDEADYYCQSYDSSLSASVFGGGTKLTVLGQPKAAPSVTLFPPSSEELQANKATLVCLISDFYPGAVTVAWKADSSPVKAGVETTTPSKQSNNKYAASSYLSLTPEQWKSHRSYSCQVTHEGSTVEKTVAPTECS
notes: also called mAb1A
With B6 as the binder, how does the Kd (recombinant human FcRn [2]) read?
Its Kd is 45 nM.

Does B6 bind [3]?
Result: binds

Does B6 bind [4]?
Result: binds

And the Kd (recombinant mouse FcRn [5])?
Its Kd is 9.3 nM.

And the “Affinity Increase (fold)” value (recombinant human FcRn [6])?
Its value is 7.7 fold.

And the “Affinity Increase (fold)” value (recombinant mouse FcRn [7])?
Its value is 2.1 fold.

B7: mAb6 (antibody)
heavy: QVQLVQSGAEVKKPGASVKVSCKASGYSFTSYGISWVRQAPGQGLEWMGWISTYKGYTQYAQNFQGRVTITTDTPATTVYMELRSLRSDDTAVYYCARVLSETGYFYYYYYGMDVWGQGTLVTVSSASTKGPSVFPLAPSSKSTSGGTAALGCLVKDYFPEPVTVSWNSGALTSGVHTFPAVLQSSGLYSLSSVVTVPSSSLGTQTYICNVNHKPSNTKVDKKVEPKSCDKTHTCPPCPAPELLGGPSVFLFPPKPKDTLYITREPEVTCVVVDVSHEDPEVKFNWYVDGVEVHNAKTKPREEQYNSTYRVVSVLTVLHQDWLNGKEYKCKVSNKALPAPIEKTISKAKGQPREPQVYTLPPSRDELTKNQVSLTCLVKGFYPSDIAVEWESNGQPENNYKTTPPVLDSDGSFFLYSKLTVDKSRWQQGNVFSCSVMHEALHNHYTQKSLSLSPG
light: QAVVTQPPSVSGAPGQRVTISCTGSSSNIGADYNVHWYQLLPGTAPKLLIYGNTNRPSGVPDRFSGSKSGTSASLAITGLQAEDEADYYCQSYDSSLSASVFGGGTKLTVLGQPKAAPSVTLFPPSSEELQANKATLVCLISDFYPGAVTVAWKADSSPVKAGVETTTPSKQSNNKYAASSYLSLTPEQWKSHRSYSCQVTHEGSTVEKTVAPTECS
notes: also called mAb1YTE
Which Kd (recombinant human FcRn [2]) does the source give for B7 here?
Its Kd is 21 nM.

Does B7 bind [3]?
Result: binds

Does B7 bind [4]?
Result: binds

And the Kd (recombinant mouse FcRn [5])?
Its Kd is 1.9 nM.

What about the “Affinity Increase (fold)” value (recombinant human FcRn [6]) of the same binder?
Its value is 16.3 fold.

And the “Affinity Increase (fold)” value (recombinant mouse FcRn [7])?
The value was 10.4 fold.

B8: mAb4 (antibody)
heavy: QVQLVQSGAEVKKPGASVKVSCKASGYSFTSYGISWVRQAPGQGLEWMGWISTYKGYTQYAQNFQGRVTITTDTPATTVYMELRSLRSDDTAVYYCARVLSETGYFYYYYYGMDVWGQGTLVTVSSASTKGPSVFPLAPSSKSTSGGTAALGCLVKDYFPEPVTVSWNSGALTSGVHTFPAVLQSSGLYSLSSVVTVPSSSLGTQTYICNVNHKPSNTKVDKKVEPKSCDKTHTCPPCPAPELLGGPSVFLFPPKPKDTLMISRTPEVTCVVVDVSHEDPEVKFNWYVDGVEVHNAKTKPREEQYNSTYRVVSVLAVLHQDWLNGKEYKCKVSNKALPAPIEKTISKAKGQPREPQVYTLPPSRDELTKNQVSLTCLVKGFYPSDIAVAWESNGQPENNYKTTPPVLDSDGSFFLYSKLTVDKSRWQQGNVFSCSVMHEALHAHYTQKSLSLSPG
light: QAVVTQPPSVSGAPGQRVTISCTGSSSNIGADYNVHWYQLLPGTAPKLLIYGNTNRPSGVPDRFSGSKSGTSASLAITGLQAEDEADYYCQSYDSSLSASVFGGGTKLTVLGQPKAAPSVTLFPPSSEELQANKATLVCLISDFYPGAVTVAWKADSSPVKAGVETTTPSKQSNNKYAASSYLSLTPEQWKSHRSYSCQVTHEGSTVEKTVAPTECS
notes: also called mAb1AAA
Which results are given for B8?
Kd (recombinant human FcRn [2]): 31 nM; binding result [3]: binds; binding result [4]: binds; Kd (recombinant mouse FcRn [5]): 8.4 nM; Affinity Increase (fold) (recombinant human FcRn [6]): 11.3 fold; Affinity Increase (fold) (recombinant mouse FcRn [7]): 2.3 fold

B9: mAb5 (antibody)
heavy: not shown
light: QAVVTQPPSVSGAPGQRVTISCTGSSSNIGADYNVHWYQLLPGTAPKLLIYGNTNRPSGVPDRFSGSKSGTSASLAITGLQAEDEADYYCQSYDSSLSASVFGGGTKLTVLGQPKAAPSVTLFPPSSEELQANKATLVCLISDFYPGAVTVAWKADSSPVKAGVETTTPSKQSNNKYAASSYLSLTPEQWKSHRSYSCQVTHEGSTVEKTVAPTECS
notes: also called mAb1QL
Which Kd (recombinant human FcRn [2]) does the source give for B9 here?
The Kd was 27 nM.

Does B9 bind [3]?
Result: binds

Does B9 bind [4]?
Result: binds

What about the Kd (recombinant mouse FcRn [5]) of the same binder?
The Kd was 5.9 nM.

And the “Affinity Increase (fold)” value (recombinant human FcRn [6])?
Its value is 13 fold.

And the “Affinity Increase (fold)” value (recombinant mouse FcRn [7])?
Its value is 3.3 fold.
